The source of these data is patent US20250186614A1, “COMPACT DRUG RESPONSIVE DOMAINS FOR REGULATION OF FUNCTION/ABUNDANCE AND DELIVERY OF POLYPEPTIDE PAYLOADS” (OBSIDIAN THERAPEUTICS, INC., priority 2022, published 2025).

B1: FKBP-151: FKBP13 DRD Q72R, Q84R, A117W, M54A; SEQ ID NO: 101 (protein)
chain: HCPIKSRKGDVLHAHYTGKLEDGTEFDSSLPRNQPFVFSLGTGRVIKGWDQGLLGMCEGEKRKLVIPSELGYGERGWPPKIPGGATLVFEVELLKIER
modifications: Description of sequence: FKBP13-AcGFP-mCherry Fusion; Construct Name: FKBP-151; FKBP13 DRD in Construct : FKBP13 (mutated to match FKBP12 active site Q72R Q84R A117W) (DRD M54A)
B2: FKBP-152: FKBP13 DRD Q72R, Q84W, A117W, M54A; SEQ ID NO: 102 (protein)
chain: B1 chain with R44W
modifications: Description of sequence: FKBP13-AcGFP-mCherry Fusion; Construct Name: FKBP-152; FKBP13 DRD in Construct : FKBP13 (mutated to match FKBP12 active site Q72R Q84W A117W) (DRD M54A)
B3: FKBP-167: FKBP13 DRD-AcGFP construct of Table 10 (protein)
chain: B1 chain with S39W, V45R
modifications: Description of sequence: Construct Name: FKBP-167; Mutation(s): Q72R S79W Q84R A117W DRD M54A V85R
B4: FKBP-178 (protein)
chain: B1 chain with F38S, R44E
modifications: Description of sequence: Construct Name: FKBP-178; Mutation(s): Q72R Q84E A117W DRD M54AF78S
B5: FKBP-166 (protein)
chain: B1 chain with S39W, R44E, V45R
modifications: Description of sequence: Construct Name: FKBP-166; Mutation(s): Q72R S79W Q84E A117W DRD M54A V85R
B6: FKBP-172 (protein)
chain: B1 chain with R44E, M56W
modifications: Description of sequence: Construct Name: FKBP-172; Mutation(s): Q72R Q84E A117W DRD M54A M96W
B7: FKBP-170 (protein)
chain: B1 chain with T42W, R44E, V45R
modifications: Description of sequence: Construct Name: FKBP-170; Mutation(s): Q72R T82W Q84E A117W DRD M54A V85R
B8: FKBP-168: FKBP13 DRD-AcGFP construct of Table 10 (protein)
chain: B1 chain with T42W, V45R
modifications: Description of sequence: Construct Name: FKBP-168; Mutation(s): Q72R T82W Q84R A117W DRD M54A V85R
B9: FKBP-182 (protein)
chain: B1 chain with R44E, V45R, M56W
modifications: Description of sequence: Construct Name: FKBP-182; Mutation(s): Q72R Q84E A117W V85R DRD M54A M96W
B10: FKBP-171 (protein)
chain: B1 chain with D10L, R44E
modifications: Description of sequence: Construct Name: FKBP-171; Mutation(s): Q72R Q84E A117W DRD M54A D50L
B11: FKBP-181 (protein)
chain: B1 chain with D10L, R44E, V45R
modifications: Description of sequence: Construct Name: FKBP-181; Mutation(s): Q72R Q84E A117W V85R DRD M54A D50L
B12: FKBP-169 (protein)
chain: B1 chain with T42W, R44E
modifications: Description of sequence: Construct Name: FKBP-169; Mutation(s): Q72R T82W Q84E A117W DRD M54A
B13: FKBP-177 (protein)
chain: B1 chain with L40G, R44E
modifications: Description of sequence: Construct Name: FKBP-177; Mutation(s): Q72R Q84E A117W DRD M54AL80G

Positions count from the first letter of the chain named. Names and notes keep the numbering of the source.

One assay concerns Jurkat cells. In words: Sirolimus (rapamycin) dose response of FKBP13 constructs stably transduced into Jurkat cells, flow cytometry. It is filed as cell-based. The settings on record: rapamycin (sirolimus), Jurkat cells stably transduced; Table 8. The protocol: Normalized EC50 values were calculated from the mCherry normalized GFP MFI values, which accounted for any differences in mCherry intensity between samples.
A general note: A flow cytometer gives signals particle by particle.
As for B1, the “Fold Change” value was found to be 10.15.

B2: the “Fold Change” value was determined as 23.17.

The assay is the same for the next values; noted with them: rapamycin; Table 14; read-out: Rapamycin EC90.
For the molecule B3, the concentration for an effect of 90% (EC90) turned out to be 1.72 µM.

In the case of B4, the concentration for an effect of 90% (EC90) amounted to 16.8 µM.

Take B5: the 90% effect concentration (EC90) is 1.64 µM.

Consider B6, for which the EC90 is 2.14 µM.

Turning to B7, the EC90 came to 0.785 µM.

On to B8, for which the EC90 was found to be 1.39 µM.

Take B9: the EC90 amounted to 3.84 µM.

B10: the EC90 stood at 16 µM.

On to B11, for which the concentration for an effect of 90% (EC90) came to 11.8 µM.

In the case of B12, the EC90 turned out to be 1.39 µM.

As to B13, the EC90 is 5.28 µM.

The same assay, now with this note: rapamycin; fold change; Table 14.
For the molecule B3, the “Rapamycin FC” value was 11.3.

Turning to B4, the “Rapamycin FC” value was 2.9.

Consider B5, for which the “Rapamycin FC” value was 15.7.

On to B6, for which the “Rapamycin FC” value worked out at 21.3.

For the molecule B7, the “Rapamycin FC” value turned out to be 16.1.

B8: the “Rapamycin FC” value came to 18.

Turning to B9, the “Rapamycin FC” value was 21.5.

On to B10, for which the “Rapamycin FC” value came out at 14.1.

Regarding B11, the “Rapamycin FC” value worked out at 15.5.

Consider B12, for which the “Rapamycin FC” value was 10.8.

Take B13: the “Rapamycin FC” value stood at 2.3.

The same assay, now with this note: rapamycin; normalized; Table 14; read-out: Rapamycin EC90 (Norm).
For the molecule B3, the EC90 turned out to be 1.71 µM.

As to B4, the 90% effect concentration (EC90) worked out at 151 µM.

For B5, the 90% effect concentration (EC90) worked out at 1.58 µM.

Consider B6, for which the EC90 was determined as 2.29 µM.

On to B7, for which the concentration for an effect of 90% (EC90) came to 0.818 µM.

As to B8, the 90% effect concentration (EC90) was found to be 1.33 µM.

As for B9, the 90% effect concentration (EC90) came out at 4.11 µM.

For the molecule B10, the 90% effect concentration (EC90) is 18 µM.

Take B11: the concentration for an effect of 90% (EC90) is 11.5 µM.

B12: the EC90 stood at 1.42 µM.

In the case of B13, the EC90 was 6.33 µM.

The same assay, now with this note: ratio of Table 7 and Table 8 EC50 values, Jurkat cells.
Regarding B1, the “EC50 (tacrolimus)/ EC50 (rapamycin)” value came to 0.91.

B2: the “EC50 (tacrolimus)/ EC50 (rapamycin)” value came to 0.55.

Still in this assay, the particulars now being: ratio of Table 7 and Table 8 fold changes, Jurkat cells.
Turning to B1, the “Fold change (tacrolimus)/ Fold change (rapamycin)” value came to 4.14.

For the molecule B2, the “Fold change (tacrolimus)/ Fold change (rapamycin)” value was 1.31.

The test system of the next assay is Jurkat cells. In words: Tacrolimus dose response of FKBP13-AcGFP-mCherry constructs stably transduced into Jurkat cells, GFP MFI by flow cytometry. It is filed as cell-based. More on the design: Basal: unit not given here. The settings on record: FIG. 44. The gist of the method:
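GFP geometric MFI was read by flow cytometry in mCherry+ cells and curve-fitted against tacrolimus dose. Cells were Jurkat E6-1, lentivirus-transduced with FKBP13-AcGFP-mCherry fusion constructs until 10-25% mCherry-positive on day 5 post-transduction.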
As to B3, the Basal came to 96 and the FC amounted to 47.22.

On to B8, for which the Basal is 72.7 and the FC was 60.19.

Still in this assay, the particulars now being: FIG. 44; at 10 uM.
On to B3, for which the “At 10 uM” value came to 4533.

B8: the “At 10 uM” value came out at 4376.

Still in this assay, the particulars now being: read-out: Tacrolimus EC90 (Norm); tacrolimus; normalized; Table 14.
For the molecule B3, the EC90 came to 0.335 µM.

For B4, the EC90 was 28.4 µM.

B5: the EC90 worked out at 0.223 µM.

On to B6, for which the 90% effect concentration (EC90) was 1.31 µM.

In the case of B7, the EC90 turned out to be 0.138 µM.

Take B8: the EC90 worked out at 0.351 µM.

Regarding B9, the 90% effect concentration (EC90) was 0.928 µM.

Regarding B10, the EC90 was 10.1 µM.

B11: the EC90 was 5.06 µM.

B12: the 90% effect concentration (EC90) turned out to be 0.493 µM.

In the case of B13, the concentration for an effect of 90% (EC90) was 23.9 µM.

The assay is the same for the next values; noted with them: read-out: Tacrolimus EC90; tacrolimus; Table 14.
Consider B3, for which the EC90 was determined as 0.348 µM.

B4: the EC90 stood at 22.3 µM.

Consider B5, for which the 90% effect concentration (EC90) was determined as 0.22 µM.

In the case of B6, the EC90 was 1.05 µM.

With B7, the EC90 was found to be 0.133 µM.

B8: the 90% effect concentration (EC90) came out at 0.342 µM.

In the case of B9, the EC90 turned out to be 0.819 µM.

Turning to B10, the EC90 is 8.16 µM.

B11: the concentration for an effect of 90% (EC90) is 14.1 µM.

Consider B12, for which the 90% effect concentration (EC90) is 0.448 µM.

On to B13, for which the EC90 stood at 18.7 µM.

Staying with this assay, now noted: tacrolimus, Jurkat cells stably transduced; Table 7.
Consider B1, for which the “Fold Change” value worked out at 42.03.

B2: the “Fold Change” value stood at 30.34.

The same assay, now with this note: tacrolimus; fold change; Table 14.
As for B3, the “Tacrolimus FC” value turned out to be 46.8.

With B4, the “Tacrolimus FC” value was found to be 36.4.

For the molecule B5, the “Tacrolimus FC” value came out at 46.

In the case of B6, the “Tacrolimus FC” value was found to be 63.1.

As for B7, the “Tacrolimus FC” value came to 47.6.

Consider B8, for which the “Tacrolimus FC” value stood at 60.2.

B9: the “Tacrolimus FC” value was found to be 64.9.

As for B10, the “Tacrolimus FC” value was determined as 60.3.

B11: the “Tacrolimus FC” value came out at 52.

For B12, the “Tacrolimus FC” value was 50.1.

On to B13, for which the “Tacrolimus FC” value was found to be 22.3.

System in a further assay: not listed separately
Description: Example 4: dose response of FKBP constructs 160-255, Ec50, Ec90 and fold change (raw and normalized to mCherry). The format is cell-based. As to conditions: FKBP constructs 160-255; not normalized; read-out: EC90. As to the method:
Additional experiments were performed for constructs FKBP-160-292.
As for B3, the concentration for an effect of 90% (EC90) was 0.348 µM.

In the case of B4, the EC90 is 22.3 µM.

Turning to B5, the 90% effect concentration (EC90) was determined as 0.22 µM.

Take B6: the EC90 is 1.05 µM.

As for B7, the concentration for an effect of 90% (EC90) was determined as 0.133 µM.

B8: the EC90 amounted to 0.342 µM.

Regarding B9, the EC90 was determined as 0.819 µM.

With B10, the EC90 stood at 8.16 µM.

Turning to B11, the EC90 was determined as 14.1 µM.

Take B12: the concentration for an effect of 90% (EC90) came out at 0.448 µM.

Consider B13, for which the 90% effect concentration (EC90) came out at 18.7 µM.

The same assay, now with this note: fold change during initial analysis.
With B3, the “FC (fold change)” value was 46.8.

Regarding B4, the “FC (fold change)” value is recorded as 36.4.

Regarding B5, the “FC (fold change)” value was 46.0.

Regarding B6, the “FC (fold change)” value was 63.1.

Consider B7, for which the “FC (fold change)” value is reported as 47.6.

As to B8, the “FC (fold change)” value is recorded as 60.2.

B9: the “FC (fold change)” value is on record as 64.9.

On to B10, for which the “FC (fold change)” value turned out to be 60.3.

Take B11: the “FC (fold change)” value is reported as 52.0.

With B12, the “FC (fold change)” value stood at 50.1.

Turning to B13, the “FC (fold change)” value is 22.3.

The assay is the same for the next values; noted with them: normalized to mCherry; read-out: EC90 (Norm).
On to B3, for which the concentration for an effect of 90% (EC90) turned out to be 0.335 µM.

In the case of B4, the concentration for an effect of 90% (EC90) is 28.4 µM.

For B5, the EC90 was 0.223 µM.

Consider B6, for which the 90% effect concentration (EC90) came to 1.31 µM.

As to B7, the EC90 was determined as 0.138 µM.

Regarding B8, the 90% effect concentration (EC90) was 0.351 µM.

In the case of B9, the concentration for an effect of 90% (EC90) was 0.928 µM.

As to B10, the 90% effect concentration (EC90) was determined as 10.1 µM.

Take B11: the EC90 turned out to be 5.06 µM.

For B12, the EC90 stood at 0.493 µM.

Turning to B13, the 90% effect concentration (EC90) stood at 23.9 µM.

A word on the EC90: it is the concentration at which the effect reaches the 90% level.
